According to patent publication US20210116443A1 (CREATIVE PROTEIN SOLUTIONS, published 2021):

What was measured:
[1] = biological target: T1, HIS-TreAC-KI: N-terminally HIS-tagged fragment of TreA with C-terminal fusion leucine zipper (Escherichia coli O9:H4 (strain HS), UniProt A7ZZD1 97-565); assay: split trehalase complementation, non-complementary zippers Ki+Ki (FIG. 24A)
T1 sequence: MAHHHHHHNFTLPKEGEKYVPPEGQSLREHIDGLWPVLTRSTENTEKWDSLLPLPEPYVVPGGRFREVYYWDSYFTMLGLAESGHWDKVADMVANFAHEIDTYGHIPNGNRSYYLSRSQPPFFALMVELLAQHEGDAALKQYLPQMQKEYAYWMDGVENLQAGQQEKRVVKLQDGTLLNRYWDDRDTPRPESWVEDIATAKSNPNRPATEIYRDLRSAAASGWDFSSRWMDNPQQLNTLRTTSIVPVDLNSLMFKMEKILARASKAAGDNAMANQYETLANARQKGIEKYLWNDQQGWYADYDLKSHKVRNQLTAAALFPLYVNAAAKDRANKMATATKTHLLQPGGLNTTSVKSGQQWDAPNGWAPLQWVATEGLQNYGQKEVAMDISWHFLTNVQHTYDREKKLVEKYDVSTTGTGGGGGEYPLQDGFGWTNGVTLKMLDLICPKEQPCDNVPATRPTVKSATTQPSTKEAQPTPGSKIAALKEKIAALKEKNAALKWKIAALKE

[2] = biological target: T2, HIS-TreAC: N-terminally HIS-tagged C-terminal fragment of TreA (Escherichia coli O9:H4 (strain HS), UniProt A7ZZD1 97-565); assay: split trehalase complementation, 24 h with trehalose, Benedict's reagent (FIG. 7)
T2 construct: Split E. coli trehalase fragment; also called HIS-tagged TreA^C
T2 sequence: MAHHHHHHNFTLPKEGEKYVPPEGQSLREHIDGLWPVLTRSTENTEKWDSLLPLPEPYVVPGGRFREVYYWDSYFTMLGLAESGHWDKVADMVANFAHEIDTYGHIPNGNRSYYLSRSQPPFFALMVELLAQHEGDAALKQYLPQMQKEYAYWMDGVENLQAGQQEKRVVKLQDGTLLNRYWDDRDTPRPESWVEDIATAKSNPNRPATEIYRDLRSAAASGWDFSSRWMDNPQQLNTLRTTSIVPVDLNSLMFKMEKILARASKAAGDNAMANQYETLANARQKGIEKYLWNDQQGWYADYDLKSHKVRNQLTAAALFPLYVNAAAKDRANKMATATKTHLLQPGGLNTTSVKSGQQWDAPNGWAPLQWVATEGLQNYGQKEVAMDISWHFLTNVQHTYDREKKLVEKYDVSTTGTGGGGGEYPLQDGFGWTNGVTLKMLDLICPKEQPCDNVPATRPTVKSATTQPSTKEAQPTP

[3] = biological target: T3, TreAC-HIS: C-terminally HIS-tagged C-terminal fragment of TreA (Escherichia coli O9:H4 (strain HS), UniProt A7ZZD1 96-565); assay: as above
T3 construct: Split E. coli trehalase fragment; also called HIS-tagged TreA^C
T3 sequence: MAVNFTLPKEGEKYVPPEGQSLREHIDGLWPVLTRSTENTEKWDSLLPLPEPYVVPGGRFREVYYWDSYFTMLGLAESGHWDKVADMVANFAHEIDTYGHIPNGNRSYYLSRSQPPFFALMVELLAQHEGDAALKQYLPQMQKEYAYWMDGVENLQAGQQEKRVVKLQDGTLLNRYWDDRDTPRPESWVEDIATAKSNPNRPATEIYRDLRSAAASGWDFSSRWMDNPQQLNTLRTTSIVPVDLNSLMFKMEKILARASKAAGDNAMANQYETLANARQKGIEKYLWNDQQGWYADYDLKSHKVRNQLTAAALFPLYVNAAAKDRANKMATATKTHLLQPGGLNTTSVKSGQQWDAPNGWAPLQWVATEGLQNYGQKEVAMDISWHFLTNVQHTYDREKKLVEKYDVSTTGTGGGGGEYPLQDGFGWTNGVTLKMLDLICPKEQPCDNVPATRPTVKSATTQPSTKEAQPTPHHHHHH

[4] = biological target: HIS-TreA^N-bCalm: N-terminally HIS-tagged N-terminal fragment of TreA^N with C-terminal fusion of bovine …; assay: split trehalase complementation with Ca2+, glucose read-out
[5] = biological target: T1, HIS-TreAC-KI: N-terminally HIS-tagged …; assay: cell-based or functional assay
[6] = biological target: T4, HIS-TreAC-EI: N-terminally HIS-tagged fragment of TreA with C-terminal fusion leucine zipper (Escherichia coli O9:H4 (strain HS), UniProt A7ZZD1 97-565); assay: split trehalase complementation, non-complementary zippers Ei+Ei (FIG. 24A)
T4 sequence: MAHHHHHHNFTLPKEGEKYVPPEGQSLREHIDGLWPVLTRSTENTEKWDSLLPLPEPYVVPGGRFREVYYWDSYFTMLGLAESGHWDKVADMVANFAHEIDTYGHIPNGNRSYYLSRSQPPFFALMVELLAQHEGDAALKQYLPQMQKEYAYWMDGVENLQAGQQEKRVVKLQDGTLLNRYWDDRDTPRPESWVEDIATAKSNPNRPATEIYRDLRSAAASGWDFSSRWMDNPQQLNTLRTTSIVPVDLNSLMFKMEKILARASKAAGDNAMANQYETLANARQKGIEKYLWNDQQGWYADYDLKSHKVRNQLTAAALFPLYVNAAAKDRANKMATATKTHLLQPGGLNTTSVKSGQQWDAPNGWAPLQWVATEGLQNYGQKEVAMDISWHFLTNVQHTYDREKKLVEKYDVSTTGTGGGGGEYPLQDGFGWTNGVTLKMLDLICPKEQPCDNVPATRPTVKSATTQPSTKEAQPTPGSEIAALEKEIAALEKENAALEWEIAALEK

B1: HIS-TreAN-KI: N-terminally HIS-tagged N-terminal fragment of TreA with C-terminal fusion with leucine zipper (other)
chain: MAHHHHHHEETPVTPQPPDILLGPLFNDVQNAKLFPDQKTFADAVPNSDPLMILADYRMQQNQSGFDLRHFVNVNFTLPKEGEKYVPGSVPGSKIAALKEKIAALKEKNAALKWKIAALKE
- binding result [1]: no binding

B2: TreAN-HIS: C-terminally HIS-tagged N-terminal fragment of TreA (w/o signal peptide) (other)
chain: MEETPVTPQPPDILLGPLFNDVQNAKLFPDQKTFADAVPNSDPLMILADYRMQQNQSGFDLRHFVNVNFTLPKEGEKYVPHHHHHH
notes: Split E. coli trehalase fragment; also called HIS-tagged TreA^N
- binding result [2]: no binding
- binding result [3]: no binding

B3: CaMKIIp-TreA^C-HIS: CaMKII peptide N-terminally fused to the C-terminally HIS-tagged C-terminal fragment of TreA (other)
chain: MARRKLKGAILTTMLATRNFVDNFTLPKEGEKYVPPEGQSLREHIDGLWPVLTRSTENTEKWDSLLPLPEPYVVPGGRFREVYYWDSYFTMLGLAESGHWDKVADMVANFAHEIDTYGHIPNGNRSYYLSRSQPPFFALMVELLAQHEGDAALKQYLPQMQKEYAYWMDGVENLQAGQQEKRVVKLQDGTLLNRYWDDRDTPRPESWVEDIATAKSNPNRPATEIYRDLRSAAASGWDFSSRWMDNPQQLNTLRTTSIVPVDLNSLMFKMEKILARASKAAGDNAMANQYETLANARQKGIEKYLWNDQQGWYADYDLKSHKVRNQLTAAALFPLYVNAAAKDRANKMATATKTHLLQPGGLNTTSVKSGQQWDAPNGWAPLQWVATEGLQNYGQKEVAMDISWHFLTNVQHTYDREKKLVEKYDVSTTGTGGGGGEYPLQDGFGWTNGVTLKMLDLICPKEQPCDNVPATRPTVKSATTQPSTKEAQPTPHHHHHH
notes: also called MaMKII peptide fused to C-terminal fragment of TreA
- binding result [4]: binds

B4: HIS-TreAN-EI: N-terminally HIS-tagged N-terminal fragment of TreA with C-terminal fusion with leucine zipper (other)
chain: MAHHHHHHEETPVTPQPPDILLGPLFNDVQNAKLFPDQKTFADAVPNSDPLMILADYRMQQNQSGFDLRHFVNVNFTLPKEGEKYVPGSVPGSEIAALEKEIAALEKENAALEWEIAALEK
- glucose signal over 3 h, lyophilized fusions resuspended in acidified bovine blood or milk (glucose strips) [5]: 2 fold
- binding result [6]: no binding
